The target in test [1] is light chain of ranibizumab. In words: ELISA. For orientation: ELISA stands for enzyme-linked immunosorbent assay.
Test [2] concerns the target heavy chain of ranibizumab. As to the kind of experiment: ELISA.

B1: recombinant human VEGF-A protein (ligand)
chain: APMAEGGGQNHHEVVKFMDVYQRSYCHPIETLVDIFQEYPDEIEYIFKPSCVPLMRCGGCCNDEGLECVPTEESNITMQIMRIKPHQGQHIGEMSFLQHNKCECRPKKDRARQENPCGPCSERRKHLFVQDPQTCKCSCKNTDSRCKARQLELNERTCRCDKPRR
On to B1, for which the binding result in test [1] and in test [2] was “no binding” each time.

The values above are taken from article PMC9124873 (BioImpacts : BI, 2021).
